The values that follow come from article PMC4599338 (Microbial Cell Factories, 2015).

The Kd is the constant that tells how readily two partners part at equilibrium. Broadly, the koff is the rate constant with which the complex falls apart. The term kon denotes a measure of how fast the partners come together.

Where a chain is given by its changes, count along the chain named.

B1: AC (VHH)
VHH: DVQLQASGGGLVQPGGSLRLTCAASGLIFGSYAMGWFRQAPGKAREFVAAISWSGGDTYADSVKGRFTISRDNAKNTVYLQMNSLEPEDTAVYSCAAVGSKYYISKDAKDYGYWGQGTQVTVSS
B2: sdAb clone L1-G2 (VHH)
VHH: EVQLQASGGGLVQAGGSLRLSCTASGRAFSTTNMGWFRQAPGKEREFVTRVNWSGGVTSYADSVKGRFTLSRDNTKNTVYLQMDSLKPEDTAVYYCAGSTVWSTDRKHYNYWGQGTQVTVSS
B3: sdAb clone L1-G2+ (VHH)
VHH: B2 VHH with T49C, L70C
B4: sdAb clone L1-G2+neg2 (VHH)
VHH: B2 VHH with Q5V, A6E, A14D, G16D, T49C, L70C, R72A
B5: sdAb clone L1-G2+neg (VHH)
VHH: B2 VHH with Q5V, A6E, A14D, G16D, T49C, L70C

One test concerns the target Staphylococcal enterotoxin B (Staphylococcus aureus, strain , UniProt P01552).
Test: not given
Details: not given
On to B1, for which the binding result is “binds”.

For a further test, the target named is Vaccinia Virus, Western Reserve, L1R Protein with C-Terminal Histidine Tag, Recombinant from baculovirus (Vaccinia virus, Western Reserve, UniProt P07612). Description: SPR; […] (100 to 0 nM, […], dissociation 600 s; […]; Langmuir model; […]. Conditions: both partners purified. A general note: In SPR one partner is held on a chip, and binding of the other changes the refractive index at the surface.
With B2, the Kd came out at 1.1 nM, the dissociation rate constant (koff) turned out to be 0.00063 s⁻¹ and the on-rate constant (kon) amounted to 580000 M⁻¹ s⁻¹.
As to B3, the equilibrium dissociation constant (Kd) was found to be 2.4 nM, the koff worked out at 0.0013 s⁻¹ and the on-rate constant (kon) was 590000 M⁻¹ s⁻¹.
On to B4, for which the dissociation constant Kd is 23 nM, the dissociation rate constant (koff) is 0.013 s⁻¹ and the kon came out at 540000 M⁻¹ s⁻¹.
Turning to B5, the dissociation constant (Kd) worked out at 3.3 nM, the koff was found to be 0.0014 s⁻¹ and the on-rate constant (kon) is 420000 M⁻¹ s⁻¹.
